We go through 42 molecules from paper PMC3171579 (ACS combinatorial science, 2011).

Where two headings read alike, the source gives them in different places. Non-standard residues stand in square brackets, D forms with d. *: point of attachment. Dkb = 3,3-dimethyl-2-ketobutyryl, CC(C)(C)C(=O)C(=O)*; d(β3hF) = N[C@@H](CC(=O)O)Cc1ccccc1; Pip = O=C(O)[C@@H]1CCCCN1; Nle = CCCC[C@H](N)C(=O)O

Test [1] deals with T1, FK506-binding protein 12 (human, UniProt P62942 1-108). Description: fluorescence polarisation.
The target in test [2] is T1, FK506-binding protein 12. Briefly: fluorescence polarisation. This is another data set of the same source.

T1 sequence (P62942 whole entry): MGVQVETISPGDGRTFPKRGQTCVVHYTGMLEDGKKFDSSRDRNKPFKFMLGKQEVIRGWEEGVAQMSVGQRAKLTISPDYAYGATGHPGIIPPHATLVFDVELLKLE

B1: rapalog 11 (R3 Nle, R4 Lys) (peptide)
chain: cyclo(K[Nle][dA][Dkb][Pip][d(β3hF)]Q)
modifications: also: ester bond between residues 3 and 4
On to B1, for which, in the test with FK506-binding protein 12 [1], the IC50 was greater than 100 µM.

B2: rapalog 11 (R3 D-Thr, R4 Nle) (peptide)
chain: cyclo([Nle][dT][dA][Dkb][Pip][d(β3hF)]Q)
modifications: also: ester bond between residues 3 and 4
For the molecule B2, the IC50 with FK506-binding protein 12 [1] was greater than 100 µM.

B3: rapalog 11 (R3 Lys, R4 Pro) (peptide)
chain: cyclo(PK[dA][Dkb][Pip][d(β3hF)]Q)
modifications: also: ester bond between residues 3 and 4
In the test with FK506-binding protein 12 [1], B3 had an IC50 of 58 µM.

B4: rapalog 12 (R3 D-Phe, R4 Lys) (peptide)
chain: cyclo(AK[dF][dA][Dkb][Pip][d(β3hF)]Q)
modifications: also: 5 Dkb: ester to 4
With B4, the IC50 in the test with FK506-binding protein 12 [1] was greater than 100 µM.

B5: rapalog 11 (R3 Pro, R4 D-Phe) (peptide)
chain: cyclo([dF]P[dA][Dkb][Pip][d(β3hF)]Q)
modifications: also: 4 Dkb: ester to 3
Consider B5, for which the IC50 with FK506-binding protein 12 [1] is 46 µM. That is a double-digit micromolar value.

B6: rapalog 11 (R3 D-Thr, R4 Lys) (peptide)
chain: cyclo(K[dT][dA][Dkb][Pip][d(β3hF)]Q)
modifications: also: ester bond between residues 3 and 4
For the molecule B6, the IC50 with FK506-binding protein 12 [1] is greater than 100 µM.

B7: rapalog 11 (R3 Pro, R4 Nle) (peptide)
chain: cyclo([Nle]P[dA][Dkb][Pip][d(β3hF)]Q)
modifications: also: 4 Dkb: ester to 3
B7: the IC50 with FK506-binding protein 12 [1] worked out at 71 µM.

B8: rapalog 11 (R3 Pro, R4 Asp) (peptide)
chain: cyclo(DP[dA][Dkb][Pip][d(β3hF)]Q)
modifications: also: ester bond between residues 3 and 4
Turning to B8, the IC50 in the test with FK506-binding protein 12 [1] worked out at 21 µM.

B9: rapalog 12 (R3 Ala, R4 Lys) (peptide)
chain: cyclo(AKA[dA][Dkb][Pip][d(β3hF)]Q)
modifications: also: 5 Dkb: ester to 4
Molecule B9 yielded an IC50 in the test with FK506-binding protein 12 [1] greater than 100 µM.

B10: rapalog 11 (R3 Pro, R4 D-Thr) (peptide)
chain: cyclo([dT]P[dA][Dkb][Pip][d(β3hF)]Q)
modifications: also: 4 Dkb: ester to 3
The molecule B10 registered an IC50 with FK506-binding protein 12 [1] of 41 µM.

B11: rapalog 2k (peptide)
chain: cyclo(AAF[Dkb][Pip][d(β3hF)]Q)
modifications: also: Dkb 4 joined by ester to 3
In the test with FK506-binding protein 12 [2], B11 came in with an IC50 of 18 µM.

B12: rapalog 11 (R3 Lys, R4 D-Thr) (peptide)
chain: cyclo([dT]K[dA][Dkb][Pip][d(β3hF)]Q)
modifications: also: ester bond between residues 3 and 4
Molecule B12 showed an IC50 with FK506-binding protein 12 [1] of 62 µM.

B13: rapalog 11 (R3 Lys, R4 Ala) (peptide)
chain: cyclo(AK[dA][Dkb][Pip][d(β3hF)]Q)
modifications: also: ester bond between residues 3 and 4
Consider B13, for which the half-maximal inhibitory concentration (IC50) with FK506-binding protein 12 [1] is greater than 100 µM.

B14: rapalog 12 (R3 Pro, R4 Lys) (peptide)
chain: cyclo(AKP[dA][Dkb][Pip][d(β3hF)]Q)
modifications: also: 5 Dkb: ester to 4
With B14, the IC50 with FK506-binding protein 12 [1] was found to be 29 µM.

B15: rapalog 12 (R3 D-Val, R4 D-Val) (peptide)
chain: cyclo(A[dV][dV][dA][Dkb][Pip][d(β3hF)]Q)
modifications: also: 5 Dkb: ester to 4
In turn, B15 showed an IC50 with FK506-binding protein 12 [1] greater than 100 µM.

B16: rapalog 11 (R3 Lys, R4 D-Val) (peptide)
chain: cyclo([dV]K[dA][Dkb][Pip][d(β3hF)]Q)
modifications: also: ester bond between residues 3 and 4
As for B16, the IC50 with FK506-binding protein 12 [1] was found to be 80 µM.

B17: rapalog 12 (R3 Pro, R4 Gly) (peptide)
chain: cyclo(AGP[dA][Dkb][Pip][d(β3hF)]Q)
modifications: also: 5 Dkb: ester to 4
Molecule B17 registered an IC50 with FK506-binding protein 12 [1] of 6 µM. Against the preceding molecule, the IC50 is about 13-fold lower.

B18: rapalog 11 (R3 D-Val, R4 D-Phe) (peptide)
chain: cyclo([dF][dV][dA][Dkb][Pip][d(β3hF)]Q)
modifications: also: ester bond between residues 3 and 4
For B18, in the test with FK506-binding protein 12 [1], the half-inhibitory concentration (IC50) is greater than 100 µM.

B19: rapalog 11 (R3 D-Phe, R4 Lys) (peptide)
chain: cyclo(K[dF][dA][Dkb][Pip][d(β3hF)]Q)
modifications: also: ester bond between residues 3 and 4
Molecule B19 returned an IC50 with FK506-binding protein 12 [1] greater than 100 µM.

B20: rapalog 11 (R3 Pro, R4 Trp) (peptide)
chain: cyclo(WP[dA][Dkb][Pip][d(β3hF)]Q)
modifications: also: 4 Dkb: ester to 3
Turning to B20, the IC50 with FK506-binding protein 12 [1] was 21 µM.

B21: rapalog 11 (R3 Lys, R4 Trp) (peptide)
chain: cyclo(WK[dA][Dkb][Pip][d(β3hF)]Q)
modifications: also: ester bond between residues 3 and 4
Regarding B21, in the test with FK506-binding protein 12 [1], the half-inhibitory concentration (IC50) came out at 12 µM.

B22: rapalog 11 (R3 Pro, R4 Lys) (peptide)
chain: cyclo(KP[dA][Dkb][Pip][d(β3hF)]Q)
modifications: also: 4 Dkb: ester to 3
In the test with FK506-binding protein 12 [1], B22 returned an IC50 of 36 µM.

B23: rapalog 12 (R3 Lys, R4 Ala) (peptide)
chain: cyclo(AAK[dA][Dkb][Pip][d(β3hF)]Q)
modifications: also: 5 Dkb: ester to 4
In the test with FK506-binding protein 12 [1], B23 showed an IC50 greater than 100 µM.

B24: rapalog 12 (R3 Pro, R4 D-Phe) (peptide)
chain: cyclo(A[dF]P[dA][Dkb][Pip][d(β3hF)]Q)
modifications: also: 5 Dkb: ester to 4
In the test with FK506-binding protein 12 [1], B24 gave a half-inhibitory concentration (IC50) of 87 µM.

B25: rapalog 12 (R3 Pro, R4 Ala) (peptide)
chain: cyclo(AAP[dA][Dkb][Pip][d(β3hF)]Q)
modifications: also: 5 Dkb: ester to 4
On to B25, for which the IC50 in the test with FK506-binding protein 12 [1] came to 21 µM.

B26: rapalog 11 (R3 Lys, R4 Gly) (peptide)
chain: cyclo(GK[dA][Dkb][Pip][d(β3hF)]Q)
modifications: also: ester bond between residues 3 and 4
In the test with FK506-binding protein 12 [1], B26 showed an IC50 of 93 µM.

B27: rapalog 12 (R3 D-Thr, R4 Pro) (peptide)
chain: cyclo(AP[dT][dA][Dkb][Pip][d(β3hF)]Q)
modifications: also: 5 Dkb: ester to 4
Molecule B27 displayed an IC50 with FK506-binding protein 12 [1] greater than 100 µM.

B28: rapalog 12 (R3 D-Val, R4 D-Phe) (peptide)
chain: cyclo(A[dF][dV][dA][Dkb][Pip][d(β3hF)]Q)
modifications: also: 5 Dkb: ester to 4
For B28, the IC50 with FK506-binding protein 12 [1] was greater than 100 µM.

B29: rapalog 12 (R3 Pro, R4 D-Thr) (peptide)
chain: cyclo(A[dT]P[dA][Dkb][Pip][d(β3hF)]Q)
modifications: also: 5 Dkb: ester to 4
Regarding B29, in the test with FK506-binding protein 12 [1], the IC50 is 38 µM. That is a double-digit micromolar value.

B30: rapalog 12 (R3 Nle, R4 D-Thr) (peptide)
chain: cyclo(A[dT][Nle][dA][Dkb][Pip][d(β3hF)]Q)
modifications: also: 5 Dkb: ester to 4
Turning to B30, the IC50 in the test with FK506-binding protein 12 [1] is greater than 100 µM.

B31: rapalog 11 (R3 Pro, R4 Ala) (peptide)
chain: cyclo(AP[dA][Dkb][Pip][d(β3hF)]Q)
modifications: also: ester bond between residues 3 and 4
Take B31: in the test with FK506-binding protein 12 [1], the IC50 is 33 µM.

B32: rapalog 12 (R3 Lys, R4 Nle) (peptide)
chain: cyclo(A[Nle]K[dA][Dkb][Pip][d(β3hF)]Q)
modifications: also: 5 Dkb: ester to 4
In the test with FK506-binding protein 12 [1], B32 had an IC50 greater than 100 µM.

B33: rapalog 11 (R3 D-Val, R4 D-Val) (peptide)
chain: cyclo([dV][dV][dA][Dkb][Pip][d(β3hF)]Q)
modifications: also: ester bond between residues 3 and 4
Take B33: in the test with FK506-binding protein 12 [1], the IC50 is greater than 100 µM.

B34: rapalog 11 (R3 Pro, R4 D-Val) (peptide)
chain: cyclo([dV]P[dA][Dkb][Pip][d(β3hF)]Q)
modifications: also: 4 Dkb: ester to 3
In turn, B34 displayed an IC50 with FK506-binding protein 12 [1] of 64 µM.

B35: rapalog 12 (R3 Pro, R4 D-Val) (peptide)
chain: cyclo(A[dV]P[dA][Dkb][Pip][d(β3hF)]Q)
modifications: also: 5 Dkb: ester to 4
The molecule B35 had an IC50 with FK506-binding protein 12 [1] of 43 µM.

B36: rapalog 11 (R3 Ala, R4 Pro) (peptide)
chain: cyclo(PA[dA][Dkb][Pip][d(β3hF)]Q)
modifications: also: ester bond between residues 3 and 4
As for B36, the IC50 with FK506-binding protein 12 [1] was greater than 100 µM.

B37: rapalog 12 (R3 D-Val, R4 Pro) (peptide)
chain: cyclo(AP[dV][dA][Dkb][Pip][d(β3hF)]Q)
modifications: also: 5 Dkb: ester to 4
As to B37, the half-inhibitory concentration (IC50) with FK506-binding protein 12 [1] is greater than 100 µM.

B38: rapalog 12 (R3 Pro, R4 Asp) (peptide)
chain: cyclo(ADP[dA][Dkb][Pip][d(β3hF)]Q)
modifications: also: 5 Dkb: ester to 4
For B38, the IC50 with FK506-binding protein 12 [1] turned out to be 3 µM.

B39: rapalog 12 (R3 D-Phe, R4 Pro) (peptide)
chain: cyclo(AP[dF][dA][Dkb][Pip][d(β3hF)]Q)
modifications: also: 5 Dkb: ester to 4
The molecule B39 registered an IC50 with FK506-binding protein 12 [1] greater than 100 µM.

B40: rapalog 11 (R3 Pro, R4 Pro) (peptide)
chain: cyclo(PP[dA][Dkb][Pip][d(β3hF)]Q)
modifications: also: 4 Dkb: ester to 3
Take B40: the IC50 in the test with FK506-binding protein 12 [1] amounted to 27 µM.

B41: rapalog 12 (R3 Lys, R4 D-Thr) (peptide)
chain: cyclo(A[dT]K[dA][Dkb][Pip][d(β3hF)]Q)
modifications: also: 5 Dkb: ester to 4
On to B41, for which the IC50 with FK506-binding protein 12 [1] is greater than 100 µM.

B42: rapalog 11 (R3 Lys, R4 Lys) (peptide)
chain: cyclo(KK[dA][Dkb][Pip][d(β3hF)]Q)
modifications: also: ester bond between residues 3 and 4
In the test with FK506-binding protein 12 [1], B42 yielded an IC50 greater than 100 µM.
